In PMC7910581:

Target: T1, Nla28-DBD (Myxococcus xanthus (DK1622?)) (UniProt Q1DD46)
T1 sequence: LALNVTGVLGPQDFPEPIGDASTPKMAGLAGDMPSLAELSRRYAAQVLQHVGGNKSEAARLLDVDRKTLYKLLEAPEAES
Test: EMSA
Conditions: EMSA: 25 mM Tris acetate, 8.0 mM magnesium acetate, 10 mM KCl, 1 mM DTT, pH 8.0, 30 min at 30 C; 2 uM Nla28-DBD, 1 ng Cy5-DNA

In the case of “CAGCAGGCGCTCGAGGTCCTCAAGGTCAAGAAGTTCGAAAGCGGCATGGTGGTGGACCCCGTCACCATCGAACCGGAGGCCCCGCTGGGCCGCGCGCTGGAGCTGATGCGCCTTCACGGCGTGTCCGGCATCCCGGTGGTGAAGGGCCAGCGACTGGTGGGCATCGTCACCAGCCGCGACGTGCGCTTCGAGACCAACTT (double strand) [Cy5-P3778]”, the binding is reported as “binds”.

With “GCGTCTTCTTGTCCGTACCGCGGAAGCGCAGCAGGTAGGGGTTGGCGTAGAAGATGTTGCCGGGCTCGCGCTTGCCCACCCAGAACGTCTCGGGGGCAATCTCCACCGGCACGAGGCGGAGGTCGGAGCTCTGGCTCGGGCTTGGGACTGGGGCGATGGTGCTGCTCATGGGCGCGGCGTTCCTTCCCTTTCGGGTGTAT (double strand) [Cy5-P1579]” the binding was “binds”.

In the case of “GCTCGTGTCGCGTCCCTACATCCAGAACGCCGCTCGCAAGGCATTGGTCTCCGCCGTGAAGAGCATTGAGGATGCTCAGCAGGAGCTGGAGAGGACGCAGAAGCAGGAGGTGGAGTCGGCAGGCGCGGTCTCGCAGGCAGGGGGCGCGAAGTCCTCCGGCTAGTCAGGACTGTGCGAGGTCGTGTGGACGCTGTCCCTGT (double strand) [Cy5-P1286]”, the binding is reported as “binds”.
